According to patent US8617883:

Molecular target: Ephrin-B2 (human, full length coding sequence, expressed on mesenchymal stem cells nucleofected with pEphrin-B2/IRES2-eGFP) (human) (UniProt P52799)
Assay: flow cytometry, Fc-chimera binding to Ephrin-B2-transfected MSCs against untransfected MSCs, FITC anti-human IgG1 detection

Sequence of UniProt P52799 (P52799 28-333): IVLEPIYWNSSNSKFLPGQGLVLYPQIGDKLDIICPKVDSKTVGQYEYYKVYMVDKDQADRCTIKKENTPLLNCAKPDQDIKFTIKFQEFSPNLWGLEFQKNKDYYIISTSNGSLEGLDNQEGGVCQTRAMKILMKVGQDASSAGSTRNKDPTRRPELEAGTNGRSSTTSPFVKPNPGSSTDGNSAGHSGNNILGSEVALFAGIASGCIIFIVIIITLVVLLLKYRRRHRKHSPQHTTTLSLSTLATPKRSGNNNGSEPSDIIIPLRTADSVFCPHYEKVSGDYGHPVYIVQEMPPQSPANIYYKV

Eph-B4/Fc chimera protein (pre-clustered) (Fc fusion)
increase in binding to transfected MSCs compared to normal cells: 22%
